Data as given in patent US20060233785A1, “Immunointeractive molecules and uses thereof” (priority 2001, published 2006).

How the values were obtained:
IgE binding to rHev b 6 = experiment: Inhibition ELISA: IgE binding to rHev b 6; parameters: species or system human; details: for inhibitor concentration required to give 30% inhibition of IgE binding: estimated; for maximum inhibition of IgE binding to rHev b 6: third subject (FIG. 8D), 125 μg/ml inhibitor
Method: Inhibition ELISA were carried out to confirm the lack of IgE reactivity of mutant rHev b 6. Various concentrations of mutant rHev b 6 and rHev b 6, ranging from 0.0016 μg/ml to 125 μg/ml were preincubated with patient sera before the sera were used in ELISA to measure IgE binding to rHev b 6. Incubation of sera with KLH was used as a negative control. Values are presented as percent inhibition±standard deviation. (A) The Hev b 6-specific mAb 1A5.4 was incubated with KLH, mutant rHev b 6 and rHev b 6 and mAb binding to rHev b 6 detected. Sera from three latex-allergic, Hev b 6 sensitised subjects A7 (B), A6 (C) and A8 (D) were incubated with KLH, mutant rHev b 6 and rHev b 6 and IgE binding to rHev b 6 detected. The horizontal line indicates the level below which inhibition was considered to non-specific.
(§1) To confirm the lack of IgE reactivity of mutant rHev b 6, inhibition ELISA were performed. In these assays, IgE binding to rHev b 6 was inhibited by preincubation of sera from latex allergic, Hev b 6 reactive subjects with either rHev b 6 or mutant rHev b 6 over a range of concentrations. To determine the level of non-specific inhibition inherent in such an assay, an initial non-specific inhibition assay was performed. The serum of a latex-allergic, Hev b 5 positive subject was incubated with rHev b 6 and mutant rHev b 6 and then the ability of IgE from this serum to bind rHev b 5 in an ELISA was measured. When this assay was undertaken, binding of IgE to rHev b5 was inhibited at a maximum of 20% by rHev b 6 and mutant rHev b 6 (data not shown).

IgE binding to rHev b 5 = experiment: Non-specific inhibition assay: IgE binding to rHev b 5; parameters: species or system human; details: serum of latex-allergic, Hev b 5 positive subject (data not shown)
Method: as §1

[1] = format: physicochemical
Description: Recombinant Hev b 6 (rHev b 6): The cDNA encoding Hev b 6 was cloned from latex RNA (Beezhold, unpublished). The deduced amino acid sequence of this clone is identical to that of the Hev b 6 clone pDHPROH 6 in Rozynek P et al., 1998, Clinical and Experimental Allergy 28:1418-1426 and differed at amino acid 126 (Thr versus Ala) from the deduced amino acid sequence of the Hev b 6 clone pDHPROH 1-2 (Genbank entry AJ003196.1). It differs at amino acids 109 (Pro versus Ser) and 161 (Leu versus Ile) from the deduced amino acid sequence of the Hev b 6 clone HEV1 (Genbank entry M36986.1), isolated by Broekaert W, Lee H, Kush A, Chua N-H, Raikhel N. Wound-induced accumulation of mRNA containing a hevein sequence in laticifers of rubber tree (Hevea brasiliensis). Proc Natl Acad Sci USA 1990; 87:7633-7637. The Hev b 6 cDNA was subcloned into the pPROEX-Hta vector (Invitrogen, CA, USA) by the polymerase chain reaction (PCR) following our standardised methods (Sutherland et al., 2002, supra). Primers HEVB6F (5′-[…]-3′) (SEQ ID NO:22) and HEVB6R (5′-[…]-3′) (SEQ ID NO:23) were used for the PCR. The plasmid construct was transformed into E. coli strain BL21-CodonPlus® (DE3)-RIL competent cells (Stratagene, CA, USA) by the heat shock procedure (Sambruk et al., 1989, supra). […]

[2] = tested on: IgE from latex allergic subjects; experiment: Western blotting of rHev b 6 forms with IgE of patient sera (Example 8); format: binding, human
Method: FIG. […] Gels were either stained with Coomassie Brilliant Blue (1) or transferred to nitrocellulose. Strips with transferred protein were incubated with the Hev b 6-specific mAb 1A5.4 and binding detected (2). Strips with transferred protein were also incubated with sera from two latex allergic, Hev b 6 sensitized subjects (3 and 4) and one non-latex-allergic, atopic subject (5). The presence or absence of IgE binding was then detected. […] Plates were coated with rHev b 6 and sulphonated rHev b 6 and the presence or absence of IgE-binding detected. As a positive control the Hev b 6-specific mAb 1A5 was used. NB indicates no binding of IgE was detected.
Four μg of rHev b 6 or sulphonated rHev b 6 were separated on 16% sodium dodecyl sulphate (SDS) polyacrylamide gels with 4% stacking gel. Electrophoresis was performed at 125V for 2 h on a Novex Xcell II Mini-Cell system (Novex, CA, USA). Proteins were visualized with Coomassie Brilliant Blue R-250 (Sigma). The separated proteins were electrophoretically transferred to nitro-cellulose membranes (BA 0.45μ, Schleicher and Schuell, Dassel, Germany) at 25V for 1 hr in transfer buffer. Membranes were blocked for 1 h at RT in 10% skim milk powder (SMP) in PBS, washed once in 0.05% Tween20/PBS and twice in PBS. Washed membranes were incubated for 1 hour at RT with either culture supernatant containing the Hev b 6-specific mAb 1A5.4, diluted 1 in 100 in 1% SMP/PBS or human serum, diluted 1 in 5 in 1% SMP/PBS. For mAb detection membranes were washed as above and incubated for 1 h at RT with goat HRP-conjugated anti-mouse Ig (Silenus), diluted 1 in 2000 in 1% SMP/PBS. For IgE detection, membranes were incubated for 1 h at RT with rabbit anti-human IgE (Dako, Denmark) at 1 in 1000 dilution, followed by swine anti-rabbit IgG-HRP conjugate (Promega) at 1 in 1000 dilution. After washing, the binding of 1A5.4 mAb and patient serum IgE to rHev b 6 was detected using hydrogen peroxide/diaminobenzidine solution.

[3] = non-reducing SDS-PAGE, sera of latex allergic subjects
[4] = reducing SDS-PAGE (data not shown)

inhibitor concentration required to give 30% inhibition of IgE binding (IgE binding to rHev b 6) [µg/mL] | inhibition of IgE binding to rHev b 6 (IgE binding to rHev b 6; higher inhibitor concentrations, FIGS. 8B, C and D) [%] | maximum inhibition of IgE binding to rHev b 6 (IgE binding to rHev b 6) [%] | maximum inhibition of IgE binding to rHev b5 (non-specific) (IgE binding to rHev b 5) [%] | fold more inhibitor required to inhibit IgE binding as effectively as rHev b 6 (IgE binding to rHev b 6; at 30% inhibition) | Molecule | solubility [1] | IgE reactivity in Western blotting [2, 3] | IgE reactivity in Western blotting [2, 4] | inhibition of IgE binding to rHev b 6 (IgE binding to rHev b 6; two subjects (FIGS. 8B and C), 0.0016 to 125 μg/ml)
0.01 | 100 | 100 | 20 | – | rHev b 6: recombinant Hev b 6 (prohevein) expressed in E. coli from pPROEX-HTa with 6-His tag (protein, left off: small tags and cut ends, recombinant Hev b 6 (prohevein) expressed in E. coli from pPROEX-HTa with 6-His tag) EQCGRQAGGKLCPNNLCCSQWGWCGSTDEYCSPDHNCQSNCKDSGEGVGGGSASNVLATYHLYNSQDHGWDLNAASAYCSTWDANKPYSWRSKYGWTAFCGPVGAHGQSSCGKCLSVTNTGTGAKTTVRIVDQCSNGGLDLDVNVFRQLDTDGKGYERGHITVNYQFVDCGDSFNPLFSVMKSSVIN | insoluble | reactive | reactive | –
125 | – | 32 | 20 | 12,500 fold | mutant rHev b 6: rHev b 6 with cysteine to alanine substitution at amino acid 3 of the mature protein (protein, left off: small tags and cut ends, rHev b 6 with cysteine to alanine substitution at amino acid 3 of the mature protein) EQAGRQAGGKLCPNNLCCSQWGWCGSTDEYCSPDHNCQSNCKDSGEGVGGGSASNVLATYHLYNSQDHGWDLNAASAYCSTWDANKPYSWRSKYGWTAFCGPVGAHGQSSCGKCLSVTNTGTGAKTTVRIVDQCSNGGLDLDVNVFRQLDTDGKGYERGHITVNYQFVDCGDSFNPLFSVMKSSVIN | – | – | – | failed to inhibit above the level determined for non-specific inhibition
– | – | – | – | – | sulphonated rHev b 6: purified rHev b 6 sulphonated in sulphonation buffer to improve solubility (protein, left off: small tags and cut ends) EQCGRQAGGKLCPNNLCCSQWGWCGSTDEYCSPDHNCQSNCKDSGEGVGGGSASNVLATYHLYNSQDHGWDLNAASAYCSTWDANKPYSWRSKYGWTAFCGPVGAHGQSSCGKCLSVTNTGTGAKTTVRIVDQCSNGGLDLDVNVFRQLDTDGKGYERGHITVNYQFVDCGDSFNPLFSVMKSSVIN | increased markedly | failed to react | reactive | –
